In patent US20210032365A1 (Chugai, published 2021):
Substitutions are numbered along the chain they refer to. In names and notes the source's numbering stands.

Columns and labels:
Serum-derived human C1s [1] = molecular target: T1, Serum-derived human C1s (human, UniProt P09871 16-688); assay: SPR Biacore T200, 37 C, antibody captured on protein A/G, pH 7.4, 1.2 mM CaCl2
T1 construct: The analyte was C1s purified from serum; also called hC1s
T1 sequence: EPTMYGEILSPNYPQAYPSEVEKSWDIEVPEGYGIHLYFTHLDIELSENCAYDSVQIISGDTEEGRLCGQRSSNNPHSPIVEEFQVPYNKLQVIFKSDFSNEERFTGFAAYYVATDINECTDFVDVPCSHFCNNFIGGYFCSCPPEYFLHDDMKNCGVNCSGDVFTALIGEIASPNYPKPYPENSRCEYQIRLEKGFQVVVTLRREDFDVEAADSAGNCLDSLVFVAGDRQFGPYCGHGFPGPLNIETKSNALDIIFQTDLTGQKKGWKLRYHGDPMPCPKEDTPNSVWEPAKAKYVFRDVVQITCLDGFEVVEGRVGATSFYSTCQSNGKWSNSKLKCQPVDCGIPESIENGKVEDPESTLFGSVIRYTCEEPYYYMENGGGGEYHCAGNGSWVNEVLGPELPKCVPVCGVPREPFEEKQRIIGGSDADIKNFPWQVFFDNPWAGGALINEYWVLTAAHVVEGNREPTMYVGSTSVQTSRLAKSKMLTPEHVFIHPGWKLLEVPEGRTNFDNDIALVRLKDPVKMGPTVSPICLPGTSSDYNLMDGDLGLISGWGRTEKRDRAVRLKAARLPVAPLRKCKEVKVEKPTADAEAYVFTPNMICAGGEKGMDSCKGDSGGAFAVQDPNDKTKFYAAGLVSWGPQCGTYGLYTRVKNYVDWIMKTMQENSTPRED
Procedure: (§1) The binding affinity of all histidine-substituted variants at pH 7.4 and pH 5.8 were determined at 37 degrees C. using Biacore T200 instrument (GE Healthcare). Recombinant Protein A/G (Pierce) was immobilized onto all flow cells of a CM4 sensor chip using amine coupling kit (GE Healthcare). Antibodies and analytes were prepared in 7(+) buffer (20 mM ACES, 150 mM NaCl, 1.2 mM CaCl2, 0.05% Tween 20, 0.005% NaN3, pH 7.4) or 5(+) buffer (20 mM ACES, 150 mM NaCl, 1.2 mM CaCl2), 0.05% Tween 20, 0.005% NaN3, pH 5.8). Each antibody was captured onto the sensor surface by protein A/G. Antibody capture levels were aimed at 200 resonance unit (RU). […] Sensor surface was regenerated each cycle with 10 mM Glycine-HCl pH 1.5. […] An additional dissociation phase at pH 5.8 was integrated immediately after the dissociation phase at pH 7.4. This dissociation rate in 5(+) buffer was determined by processing and fitting data using Scrubber 2.0 (BioLogic Software) curve fitting software.

Serum-derived human C1s [2] = molecular target: T1, Serum-derived human C1s; assay: SPR Biacore T200, 37 C, ratio of dissociation rates pH 5.8 / pH 7.4, 1.2 mM CaCl2
Procedure: as §1

Serum-derived human C1s [3] = molecular target: T1, Serum-derived human C1s; assay: SPR Biacore T200, 37 C, ratio of KD pH 5.8 / pH 7.4, 1.2 mM CaCl2
Procedure: as §1, with “software. […]” for “software.”

Serum-derived human C1s [4] = molecular target: T1, Serum-derived human C1s; assay: SPR Biacore T200, 37 C, antibody captured on protein A/G, pH 5.8, 1.2 mM CaCl2
Procedure: as §1

human C1s [5] = molecular target: T2, human C1s (human, UniProt P09871 16-688); assay: SPR; koff (5.8+ of 775+): extra dissociation phase at pH 5.8 (1.2 mM Ca) right after the pH 7.4 dissociation, Scrubber fit
T2 construct: Analyte in the Biacore assays; also called hC1s; serum-derived human C1s (CompTech)
T2 sequence: T1 sequence
Procedure: as §1

human C1s [6] = molecular target: T2, human C1s; assay: SPR; KD at pH 5.8 over KD at pH 7.4, both 1.2 mM Ca
Procedure: as §1, with “software. […]” for “software.”

human C1s [7] = molecular target: T2, human C1s; assay: SPR (Biacore T200, 37C), Ab captured on protein A/G, serum C1s 12.5 and 50 nM; pH 7.4, 1.2 mM Ca
Procedure: as §1

B1: IPN009VH2/IPN93L0024-SG136 (antibody, human IgG1, kappa)
heavy: EVMLVESGGGLVKPGGSLRLSCAASGFTFSNYAMSWVRQAPGKGLEWVATISSGGSHTYYLDSVKGRFTISRDNSKDTLYLQMNSLRAEDTALYYCARLFTGYAMDYWGQGTLVTVSSASTKGPSVFPLAPSSKSTSGGTAALGCLVKDYFPEPVTVSWNSGALTSGVHTFPAVLQSSGLYSLSSVVTVPSSSLGTQTYICNVNHKPSNTKVDKKVEPKSCDKTHTCPPCPAPELRRGPSVFLFPPKPKDTLMISRTPEVTCVVVDVSHEDPEVKFNWYVDGVEVHNAKTKPREEQYNSTYRVVSVLTVLHQDWLNGKEYKCKVSNKGLPSSIEKTISKAKGQPREPQVYTLPPSREEMTKNQVSLTCLVKGFYPSDIAVEWESNGQPENNYKTTPPVLDSDGSFFLYSKLTVDKSRWQQGNVFSCSVMHEALHNHYTQKSLSLSP
light: QIVLTQSPATLSLSPGERATLSCTASSSVSSSYLHWYQQKPGKAPKLWIYSTSNLASGVPSRFSGSGSGTDYTLTISSLQPEDFATYYCHQYYRLHPITFGQGTKLEIKRTVAAPSVFIFPPSDEQLKSGTASVVCLLNNFYPREAKVQWKVDNALQSGNSQESVTEQDSKDCTYSLSSTLTLSKADYEKHKVYACEVTHQGLSSPVTKSFNRGEC
notes: VL is IPN009VK3 with P95H (Kabat)
- kon (Serum-derived human C1s [1]): 180000 M⁻¹ s⁻¹
- koff (5.8+ of 775+)/koff (7.4+) (Serum-derived human C1s [2]): 1.2
- KD (5.8+)/KD (7.4+) (Serum-derived human C1s [3]): 1.3
- koff (Serum-derived human C1s [4]): 0.000956 s⁻¹
- kon (Serum-derived human C1s [4]): 221000 M⁻¹ s⁻¹

B2: IPN009VH2/IPN009VK3-SG136 (antibody, human IgG1, kappa)
heavy: B1 heavy
light: B1 light with H96P
notes: also called IPN009VH2/IPN009VK3 (lot PPU2040)
- koff (human C1s [5]): 8.86e-05 s⁻¹
- KD (5.8+)/KD (7.4+) (human C1s [6]): 0.4
- koff (human C1s [7]): 0.000411 s⁻¹

B3: IPN92H0288/IPN93L0211-SG136 (antibody, human IgG1, kappa)
heavy: B1 heavy with Y60E, K65D, G102K, Y103H
light: B1 light with S28E, S31E
- kon (Serum-derived human C1s [1]): 469000 M⁻¹ s⁻¹
- koff (5.8+ of 775+)/koff (7.4+) (Serum-derived human C1s [2]): 54.2
- KD (5.8+)/KD (7.4+) (Serum-derived human C1s [3]): 74.9
- koff (Serum-derived human C1s [4]): 0.0194 s⁻¹
- kon (Serum-derived human C1s [4]): 233000 M⁻¹ s⁻¹

B4: IPN92H0033/IPN009VK3-SG136 (antibody, human IgG1, kappa)
heavy: B1 heavy with Y103H
light: B1 light with H96P
notes: also called IPN92H0033/IPN009VK3 (lot PPU2041)
- koff (human C1s [5]): 0.000265 s⁻¹
- KD (5.8+)/KD (7.4+) (human C1s [6]): 0.9
- koff (human C1s [7]): 0.00038 s⁻¹

B5: IPN92H0288/IPN93L0211-SG136 (antibody, human IgG1, kappa)
heavy: B1 heavy with Y60E, K65D, G102K, Y103H
light: B1 light with S28E, S31E
notes: also called IPN92H0288/IPN93L0211 (lot PPU2049)
- koff (human C1s [5]): 0.0282 s⁻¹
- KD (5.8+)/KD (7.4+) (human C1s [6]): 74.9
- koff (human C1s [7]): 0.00052 s⁻¹

B6: IPN92H0288/IPN93L0058-SG136 (antibody, human IgG1, kappa)
heavy: B1 heavy with Y60E, K65D, G102K, Y103H
light: B1 light with S28E
notes: also called IPN92H0288/IPN93L0058 (lot PPU2050)
- koff (human C1s [5]): 0.0158 s⁻¹
- KD (5.8+)/KD (7.4+) (human C1s [6]): 65.6
- koff (human C1s [7]): 0.000408 s⁻¹

B7: IPN92H0038/IPN93L0024-SG136 (antibody, human IgG1, kappa, name in Kabat numbering)
heavy: B1 heavy with G66H, Y103H
light: B1 light
notes: Substitutions are numbered by Kabat
- Kd (Serum-derived human C1s [1]): 1.2 nM
- kon (Serum-derived human C1s [1]): 384000 M⁻¹ s⁻¹
- koff (5.8+ of 775+)/koff (7.4+) (Serum-derived human C1s [2]): 7.7
- KD (5.8+)/KD (7.4+) (Serum-derived human C1s [3]): 8.9
- Kd (Serum-derived human C1s [4]): 10.7 nM
- koff (Serum-derived human C1s [4]): 0.00309 s⁻¹
- kon (Serum-derived human C1s [4]): 289000 M⁻¹ s⁻¹

B8: IPN92H0033/IPN93L0024-SG136 (antibody, human IgG1, kappa)
heavy: B1 heavy with Y103H
light: B1 light
- kon (Serum-derived human C1s [1]): 227000 M⁻¹ s⁻¹
- koff (5.8+ of 775+)/koff (7.4+) (Serum-derived human C1s [2]): 5.1
- KD (5.8+)/KD (7.4+) (Serum-derived human C1s [3]): 4.7
- koff (Serum-derived human C1s [4]): 0.0031 s⁻¹
- kon (Serum-derived human C1s [4]): 261000 M⁻¹ s⁻¹

B9: IPN92H0307/IPN93L0058-SG136 (antibody, human IgG1, kappa)
heavy: B1 heavy with T28E, S30E, Y60E, K65D, G102K, Y103H
light: B1 light with S28E
- kon (Serum-derived human C1s [1]): 391000 M⁻¹ s⁻¹
- koff (5.8+ of 775+)/koff (7.4+) (Serum-derived human C1s [2]): 28.8
- KD (5.8+)/KD (7.4+) (Serum-derived human C1s [3]): 28.4
- koff (Serum-derived human C1s [4]): 0.0121 s⁻¹
- kon (Serum-derived human C1s [4]): 318000 M⁻¹ s⁻¹

B10: IPN92H0033/IPN009VK3-SG136 (antibody, human IgG1, kappa)
heavy: B1 heavy with Y103H
light: B1 light with H96P
notes: VH is IPN009VH2 with Y99H (Kabat)
- kon (Serum-derived human C1s [1]): 377000 M⁻¹ s⁻¹
- koff (5.8+ of 775+)/koff (7.4+) (Serum-derived human C1s [2]): 0.7
- KD (5.8+)/KD (7.4+) (Serum-derived human C1s [3]): 0.9
- koff (Serum-derived human C1s [4]): 0.000362 s⁻¹
- kon (Serum-derived human C1s [4]): 389000 M⁻¹ s⁻¹

B11: IPN009VH2/IPN93L0024-SG136 (antibody, human IgG1, kappa)
heavy: B1 heavy
light: B1 light
notes: also called IPN009VH2/IPN93L0024 (lot PPU2044)
- koff (human C1s [5]): 0.000741 s⁻¹
- KD (5.8+)/KD (7.4+) (human C1s [6]): 1.3
- koff (human C1s [7]): 0.000612 s⁻¹

B12: IPN92H0307/IPN93L0058-SG136 (antibody, human IgG1, kappa)
heavy: B1 heavy with T28E, S30E, Y60E, K65D, G102K, Y103H
light: B1 light with S28E
notes: also called IPN92H0307/IPN93L0058 (lot PPU2051)
- koff (human C1s [5]): 0.0151 s⁻¹
- KD (5.8+)/KD (7.4+) (human C1s [6]): 28.4
- koff (human C1s [7]): 0.000523 s⁻¹

B13: IPN009VH2/IPN93L0021-SG136 (antibody, human IgG1, kappa, name in Kabat numbering)
heavy: B1 heavy
light: B1 light with Y93H, H96P
notes: also called IPN009VH2/IPN93L0021 (lot PPU2042)
- koff (human C1s [5]): 0.0011 s⁻¹
- KD (5.8+)/KD (7.4+) (human C1s [6]): 1.5
- koff (human C1s [7]): 0.00058 s⁻¹

B14: IPN92H0288/IPN93L0058-SG136 (antibody, human IgG1, kappa)
heavy: B1 heavy with Y60E, K65D, G102K, Y103H
light: B1 light with S28E
- kon (Serum-derived human C1s [1]): 666000 M⁻¹ s⁻¹
- koff (5.8+ of 775+)/koff (7.4+) (Serum-derived human C1s [2]): 38.8
- KD (5.8+)/KD (7.4+) (Serum-derived human C1s [3]): 65.6
- koff (Serum-derived human C1s [4]): 0.0127 s⁻¹
- kon (Serum-derived human C1s [4]): 315000 M⁻¹ s⁻¹

B15: IPN92H0281/IPN93L0024-SG136 (antibody, human IgG1, kappa, name in Kabat numbering)
heavy: B1 heavy with H57K, Y60E, K65D, G66E, G102K, Y103H
light: B1 light
notes: as for B7
- Kd (Serum-derived human C1s [1]): 2.02 nM
- kon (Serum-derived human C1s [1]): 319000 M⁻¹ s⁻¹
- koff (5.8+ of 775+)/koff (7.4+) (Serum-derived human C1s [2]): 38.2
- KD (5.8+)/KD (7.4+) (Serum-derived human C1s [3]): 60.9
- Kd (Serum-derived human C1s [4]): 123 nM
- koff (Serum-derived human C1s [4]): 0.0267 s⁻¹
- kon (Serum-derived human C1s [4]): 217000 M⁻¹ s⁻¹

B16: IPN92H0033/IPN93L0024-SG136 (antibody, human IgG1, kappa)
heavy: B1 heavy with Y103H
light: B1 light
notes: also called IPN92H0033/IPN93L0024 (lot PPU2046)
- koff (human C1s [5]): 0.0029 s⁻¹
- KD (5.8+)/KD (7.4+) (human C1s [6]): 4.7
- koff (human C1s [7]): 0.000571 s⁻¹
